From patent publication US12624123B2, “Compositions and methods for reducing off-target toxicity of antibody drug conjugates” (The Research Foundation for The State University of New York, priority 2019, dated 2026) come the findings set out here.

“And” between values parts separate entries of the source, which are not always exact repeats. Equal values may be shown once. “Also recorded” adds a separate entry of the source. Read-outs that look alike come from different tables or passages of the source.

Data set [1] deals with MOLM-14 cells. Put plainly: MTT cytotoxicity of DM4 on MOLM-14 cells (DF3A2). The data set is classed as cell-based, human. Here is the method: (§1) Log-phase Lovo or MOLM-14 cells were seeded in 96-well microtiter plates at a density of 5,000 cells/well, in 100 μL or 70 μL of culture medium, respectively. Lovo cells were allowed to adhere for 24 h before cell culture media was aspirated and replaced with 100 μL of PBS containing a range of treatment for 6h, then washed for 2 times before replacing with fresh media and incubated for additional 90 h. MOLM-14 cells were re-suspended with treatment solutions, where 100 μL of cell-treatment suspension was aliquoted into wells of a 96-well plate for 24 h. Treatment solutions consisted of DM-4 with or without purified anti-drug sdAb. For MOLM-14 cells, 10 μL of MTT solution (5 mg/mL in pH 7.4 1× PBS) was added directly to wells following treatment incubation. For adherent cells, treatment media was aspirated from wells and cells were washed three times with 100 μL of fresh media. Following the final wash, 100 μL of complete media and 25 μL of MTT solution were added to each well. Cells were incubated for 4 h in order to allow cells to reduce MTT to formazan dye. Once MTT was reduced, 100 μL of 10% SDS prepared in 0.01 M HCl was added to each well and incubated overnight to solubilize the formazan crystals. Formazan dye was measured at 570 nm and normalized by cell debris at 690 nm.

The subject of a further data set is Lovo cells. The data set is described as follows: MTT cytotoxicity of DM1 and DM4 on Lovo cells. Type of data set: cell-based. The conditions noted are these: for IC50: DM4 alone, read-out: IC50 of DM4. Here is the method:
as §1, with “Lovo cells were allowed to adhere for 24 h before cell culture media was aspirated and replaced with 100 μL of PBS containing a range of treatment for 6h, then washed for 2 times before replacing with fresh media and incubated for additional 90 h.” left out

A further data set concerns NCI-N87 cells. Put plainly: NCI-N87 pulse cytotoxicity assay with C7 sdAb prep. Type of data set: cell-based. Particulars: NCI-N87, 2 h pulse, 96 h with sdAb prep diluted 1:6.67. Here is the method: FIG. 43. Purification of C7 sdAb from BL21(DE3) transformed E. coli cells and inhibitory cell cytotoxicity assays. C7 sdAb was expressed to the periplasm using a pelB leader sequence and purified using IMAC Ni-NTA resin. […] Although the product was crude, it was employed in cell cytotoxicity assays. NCI-N87 cells were seeded at a density of 10,000 cells/well and pulse with treatment solutions for 2 h. After treatment removal and washing, cells were incubated for 96 h with sdAb prep, diluted 1:6.67 with fresh culture medium.
From the single domain library, there were nine positive hits from three rounds of panning against BSA-MMAF/T-vc-MMAE. The screening of isolated colonies determined all were inhibited by incubation with free MMAE (FIG. 42), with three >10-fold inhibition. One colony, C7 was selected for infection of BL21(DE3) cells and protein expression.

The nature of data set [2]: SPR dissociation screening on DM1-Biotin chip. Particulars: 20 min dissociation phase. The data set is classed as binding. Here is the method:
Preliminary screening of DM1/4 binders were performed using a neutravidin SPR chip with DM1-Biotin on the left channel. Phagemid purified sdAbs were flowed over the SPR chip for 2 minutes at a flow rate of 25 ul/min. After binding, sdAb was dissociated for 20 minutes. Observed sensorgrams were fit to an individual dissociation rate constant for each construct. Equilibrium and kinetic binding of 3A2 was assessed using a CM5 SPR chip with TDM1 immobilized on the left channel. […] Rate constants for 3A2-TDM1 association and dissociation were obtained through fitting of the observed sensorgrams for the 1.25, 2.5, 5, 7.5 and 10 nM injections to a 1:1 Langmuir binding model.

Data set [3] in a line: Screening of llama sdAb phage clones against calicheamicin conjugates (FIG. 25). Type of data set: binding. Here is the method: A master plate was generated by inoculating a single colony into wells of a 96-well round-bottom culture plate filled with […] 2×TY supplemented with 100 μg/mL ampicillin, 2% (wt/vol) glucose and 10% (vol/vol) glycerol, and grown overnight at 37° C. These wells were then used to inoculate wells of 96-deepwell plates containing 1 mL of 2×TY medium (100 μg/mL ampicillin+0.1% (wt/v) glucose per well). Plates were incubated them for 3 h at 37° C. and 250 rpm until OD600≈0.5. Nanobody expression was induced with 4 μL of 0.5 M IPTG per well (final concentration of 2 mM) and incubated for an additional 15-24 h at 37° C. and 250 rpm. Nunc Maxisorp 96-well plates were coated as described previously. Plates were washed three times with PBST and blocked with MPBS for 2 h at RT. […] Plates were then washed three times with PBST, where bound phage was detected using an anti-HA tag HRP-conjugated Ab diluted 1:1000 in PBST. Following incubated and five washed with PBST, 100 μL of 1-Step Turbo TMB-ELISA solution was added to each well and incubated for 30 minutes. The reaction was quenched by adding 100 μL of Stop solution to each well and absorbance was measured at 450 nm.
50 μl Dynabeads-calicheamicin were blocked with MPBS (PBS+2% non-fat dry milk) at RT for 30 minutes. Following pre-incubation with 1:50 preimmunized llama plasma, phage solutions were incubated with beads at RT for 30 minutes. […]

Data set [4] concerns MOLM-14 cells. The data set is described as follows: MTT cytotoxicity of calicheamicin on MOLM-14 cells. Type of data set: cell-based, human. Particulars: 24 h, 100 μM peptide or sdAb. Here is the method: (§2) Log-phase MOLM-14, Ramos (RA 1), HT-29, LS174T, or NCI-N87 cells were seeded in 96-well microtiter plates at a density of 20,000 cells/well, 20,000 cells/well, 5,000 cells/well, 5,000 cells/well, and 10,000 cells/well, respectively, in 100 μL of culture medium. HT-29, LS174T, and NCI-N87 cells were allowed to adhere for 24 h before cell culture media was aspirated and replaced with 100 μL of fresh media containing a range of treatment for, 48 (LS174T), 96 (NCI-N87), or 120 (HT-29) h. MOLM-14 and Ramos cells were re-suspended with treatment solutions, where 100 μL of cell-treatment suspension was aliquoted into wells of a 96-well plate for 24 h. Treatment solutions consisted of calicheamicin, MMAE, topotecan, or SN38 with or without immunized animal plasma, purified anti-drug antibody, or antibody-drug conjugate (ADC) with or without plasma or anti-drug antibody. For MOLM-14 and Ramos cells, 25 μL of MTT solution (5 mg/mL in pH 7.4 1× PBS) was added directly to wells following treatment incubation. For adherent cells, treatment media was aspirated from wells and cells were washed three times with 100 μL of fresh media. Following the final wash, 100 μL of complete media and 25 μL of MTT solution were added to each well. Cells were incubated for 4 h in order to allow cells to reduce MTT to formazan dye. Once MTT was reduced, 100 μL of 10% SDS prepared in 0.01 M HCl was added to each well and incubated overnight to solubilize the formazan crystals. Formazan dye was measured at 570 nm and normalized by cell debris at 690 nm.
(§3) Fresh media containing a range of treatment were pre-incubated with or without 100 μM purified sdAb at room temperature for 30 minutes. Log-phase MOLM-14 cells were seeded in 96-well microtiter plates at a density of 20,000 cells/well, and were re-suspended with treatment solutions, where 100 μL of cell-treatment suspension was aliquoted into wells of a 96-well plate for 24 h. 25 μL of MTT solution (5 mg/mL in pH 7.4 1× PBS) was added directly to wells following treatment incubation. […] Formazan dye was measured at 570 nm and normalized by cell debris at 690 nm.

The test system of another data set is Ramos cells. Put plainly: MTT cytotoxicity of calicheamicin on Ramos cells. Type of data set: cell-based. Particulars: 24 h. Here is the method: as §2, §3
A short description of data set [5]: sdAb CG4 ELISA and Dynabeads binding assay. The conditions noted are these: for actual fold reduction considering background: 10 μM calicheamicin. Here is the method:
Nunc Maxisorp 96-well plates were coated with 4 μg/ml Cetuximab or Cetuximab-calicheamicin, or 5 μg/ml Avidin. Plates were washed three times with PBST and three times with dH2O, and blocked with MPBS for 2 h at RT. For the Avidin coated plates, plates were washed three times with PBST and incubated with 1 μM Biotin-Calicheamcin. Plates were then washed three times with PBST and incubated with increasing concentration of purified sdAb CG4 (G4 from FIG. 25) at RT for 2 h, with or without pre-incubation with free Calicheamicin at 10 μM. Plates were then washed three times with PBST, where bound sdAb was detected using an anti-His tag HRP-conjugated Ab diluted 1:1000 in MPBST. Following incubated and five washed with PBST, 100 μL of 1-Step Turbo TMB-ELISA solution was added to each well and incubated for 30 minutes. The reaction was quenched by adding 100 μL of Stop solution to each well and absorbance was measured at 450 nm. Alternatively, wells can also be incubated with 1:1000 diluted anti-His tag AP-conjugated Ab, instead of HRP conjugated Ab. After washing, 4 mg/ml PNPP in diethanolamine buffer pH 9.8 with absorbance being read at 405 nm.
Calicheamicin conjugated dynabeads were washed with PBST and blocked with MPBS for 30 min. Beads were washed three times with PBST and incubated with sdAb for 30 minutes. Bound sdAb were detected with 1:1000 diluted anti-His tag HRP-conjugated Ab. After washed with PBST, beads were resuspended with 500 μL of 1-Step Turbo TMB-ELISA solution and incubated for 30 minutes. The reaction was quenched by adding Stop solution, and absorbance was measured at 450 nm.
(ELISA stands for enzyme-linked immunosorbent assay.)

By IC50 is commonly meant the concentration needed to halve the response being measured. `COc1cc2cc(c1Cl)N(C)C(=O)C[C@H](OC(=O)[C@H](C)N(C)C(=O)CCC(C)(C)S)[C@]1(C)O[C@H]1[C@H](C)[C@@H]1C[C@@](O)(NC(=O)O1)[C@H](OC)/C=C/C=C(\C)C2` [DM4]: the IC50 was 18 nM and 18.4 nM with MOLM-14 cells [1] (DM4 alone); 7.7 nM and 21.5 nM in the data set with Lovo cells (6 h exposure); 0.713 nM and 1.84 nM with Lovo cells (24 h exposure).

B1: MC7 (protein)
VHH: QVQLVQSGGGLVQAGGSLRLSCVASGRTFSMYRMGWFRQAPGKEREFVASIRWSGGSTYYTDSVKDRFTISRDNAKNTVYLQMNSLKPEDTAVYYCAADPVWRLNSWYRGAVGYWGQGTQVTVSS
modifications: MC7
Consider B1, for which, in the data set with NCI-N87 cells, the “fold enhancement of T-vc-MMAE cytotoxicity” value is 5.2 fold and the “fold inhibition of MMAE cytotoxicity” value came out at 5.6 fold.

B2: DF3A2 (protein)
VHH: QVQLQESGGGLVQPGGSLRLSCAASGGIFGISYMGWYRQAPGKQREPVALITSGGDTAYGDSVKGRFAISRDNAKNTVYLQMNSLKPDDTSAYYCAAGFYRSDSPNRYDYWGQGTQVTVSS
modifications: DF3A2
Regarding B2, the dissociation kinetics result in data set [2] is reported as “longest dissociation rates; also recorded: longer dissociation rates”. The “fold inhibition of DM4 cytotoxicity” value in the data set on MOLM-14 cells [1] is reported as 2.1 fold. Also, the “fold shift of DM4 IC50” value in the data set with Lovo cells (6 h exposure) came to 11 fold.

B3: CG4: Anti-Calicheamicin sdAb, SEQ ID NO:12 (protein)
VHH: QVQLQESGGGLVQAGGSLRLSCAASGRTISGYAMGWFRQAPGKERDLVAAISRSGTSTYYADSVKGRFTISRDNAKNTVYLQMNSLKPEDTAVYYCNAPGGIWGQGTQVTVSS
modifications: CG4
With B3, in data set [3] (rescreen of five colonies), the “effect of 1 μM free calicheamicin on clone binding” value is “only clone inhibited; also recorded: loss of binding signal”. In addition, in data set [3] (single colonies), the binding to dynabeads-calicheamicin result is “high binding”. Besides, the “fold change of calicheamicin IC50” value in the data set on MOLM-14 cells [4] amounted to 15.4 fold. Further, the “fold inhibition of calicheamicin cytotoxicity (IC50 shift)” value with Ramos cells is 6.34 fold. In addition, the “fold decrease of CG4 binding signal by 10 μM calicheamicin” value in data set [5] (avidin (biotin-calicheamicin) coated plates, 64 μM CG4) is reported as 2 fold. For the same molecule, the “actual fold reduction considering background” value is roughly 4.3 fold in data set [5] (avidin coated plates) and “around 3.3 fold” in data set [5] (cetuximab-calicheamicin coated plates). In addition, in data set [5] (cetuximab-calicheamicin ELISA and Dynabeads-calicheamicin), the “binding to calicheamicin conjugates vs CG4 concentration” value is “apparent calicheamicin binding with increasing concentration; also recorded: increased with increasing concentration”.
